According to the Immune Epitope Database (IEDB):

Legend:
[1] = biological target: HLA-A*30:01; assay: IEDB peptide-MHC binding, purified MHC/competitive/radioactivity; filed as Kd, often an IC50 or EC50 that approximates it; ≥ and ≤ were set here for values at or beyond the usual limits of such assays
[2] = biological target: HLA-A*32:01; assay: as above
[3] = biological target: HLA-A*30:02; assay: as above
[4] = biological target: HLA-A*26:01; assay: as above
[5] = biological target: HLA-A*29:02; assay: as above
[6] = biological target: HLA-A*01:01; assay: as above
[7] = biological target: HLA-A*68:02; assay: as above
[8] = biological target: HLA-B*57:01; assay: IEDB peptide-MHC binding, purified MHC/direct/fluorescence; filed as Kd, often an IC50 or EC50 that approximates it; ≥ and ≤ were set here for values at or beyond the usual limits of such assays
[9] = biological target: HLA-B*15:01; assay: as above; conditions: source organism: Homo sapiens
[10] = biological target: HLA-B*07:02; assay: as above; conditions: source organism: Homo sapiens
[11] = biological target: HLA-A*24:02; assay: IEDB peptide-MHC binding, purified MHC/competitive/fluorescence; ≥ and ≤ were set here for values at or beyond the usual limits of such assays
[12] = biological target: HLA-A*02:01; assay: as above
[13] = biological target: HLA-B*53:01; assay: IEDB peptide-MHC binding, purified MHC/competitive/radioactivity; filed as Kd, often an IC50 or EC50 that approximates it; ≥ and ≤ were set here for values at or beyond the usual limits of such assays
[14] = biological target: HLA-B*51:01; assay: as above
[15] = biological target: HLA-A*02:06; assay: as above
[16] = biological target: HLA-B*08:01; assay: IEDB peptide-MHC binding, purified MHC/direct/fluorescence; filed as Kd, often an IC50 or EC50 that approximates it; ≥ and ≤ were set here for values at or beyond the usual limits of such assays; conditions: source organism: Coxiella burnetii Q321
[17] = biological target: HLA-A*23:01; assay: IEDB peptide-MHC binding, purified MHC/competitive/radioactivity; filed as Kd, often an IC50 or EC50 that approximates it; ≥ and ≤ were set here for values at or beyond the usual limits of such assays; conditions: source organism: Mammarenavirus guanaritoense
[18] = biological target: HLA-A*24:02; assay: as above; conditions: source organism: Mammarenavirus guanaritoense
[19] = biological target: HLA-A*02:02; assay: as above
[20] = biological target: HLA-A*02:03; assay: as above
[21] = source organism: Dengue virus 2 Peru/IQT2913/1996
[22] = source organism: Mammarenavirus guanaritoense
[23] = source organism: Dengue virus 2 Jamaica/1409/1983
[24] = source organism: Mammarenavirus brazilense
[25] = source organism: Vaccinia virus WR
[26] = source organism: Dengue virus 4 Philippines/H241/1956
[27] = source organism: Dengue virus 3 Martinique/1243/1999
[28] = source organism: Zaire ebolavirus
[29] = source organism: Sudan ebolavirus
[30] = source organism: Dengue virus 1 Brazil/97-11/1997
[31] = source organism: Lymphocytic choriomeningitis virus (strain Armstrong) (clone 53b)
[32] = source organism: Lassa virus Josiah

Q: Which Kd [1, 21] does the source give for KNRLNALGK here?
A: 142 nM

Q: Which Kd [2, 22] does the source give for YSDPKRFFL here?
A: ≥ 77800 nM

Q: What about the Kd [3, 22] of the same sequence?
A: 85.9 nM

Q: And the Kd [4, 22]?
A: ≥ 77900 nM

Q: What about the Kd [5, 22] of the same sequence?
A: ≥ 21300 nM

Q: What about the Kd [1, 22] of the same sequence?
A: 6160 nM

Q: What about the Kd [6, 22] of the same sequence?
A: 7.32 nM

Q: Which Kd [7, 23] does the source give for SSVNVSLTAI here?
A: 184 nM

Q: YNISRKIVY was tested. Which Kd [2, 24] did it give?
A: ≥ 36200 nM

Q: What about the Kd [3, 24] of the same sequence?
A: 3410 nM

Q: What about the Kd [4, 24] of the same sequence?
A: 2890 nM

Q: And the Kd [5, 24]?
A: 2350 nM

Q: And the Kd [1, 24]?
A: 6600 nM

Q: What about the Kd [6, 24] of the same sequence?
A: 1080 nM

Q: How did the Kd ([1]; source organism: Vaccinia virus Copenhagen) turn out when CARISSRES was run?
A: 586 nM

Q: RQLQKIERW was tested. Which Kd ([8]; source organism: Yellow fever virus) did it give?
A: 405 nM

Q: How did the Kd ([7]; source organism: Homo sapiens) turn out when ELRRQVDQL was run?
A: 1210 nM

Q: How did the Kd ([7]; source organism: Homo sapiens) turn out when KLEGDSTDL was run?
A: 2050 nM

Q: With LPHQPLATY as the sequence, how does the Kd [9] read?
A: 2350 nM

Q: And the Kd [10]?
A: 5980 nM

Q: How did the IC50 [11, 25] turn out when KFMSNGEHV was run?
A: 4440 nM

Q: What about the IC50 [12, 25] of the same sequence?
A: 27700 nM

Q: With VSRLEHQMW as the sequence, how does the Kd ([8]; source organism: West Nile virus) read?
A: 90.5 nM

Q: With LPVWLAYKV as the sequence, how does the Kd [13, 21] read?
A: 157 nM

Q: And the Kd [14, 21]?
A: 515 nM

Q: Which Kd [3, 26] does the source give for KTKTDFGFY here?
A: 1.56 nM

Q: What about the Kd [1, 26] of the same sequence?
A: 2.89 nM

Q: What about the Kd [6, 26] of the same sequence?
A: 6280 nM

Q: With TVFFVLMML as the sequence, how does the Kd [7, 26] read?
A: 36 nM

Q: For LLEGEEERL, which Kd ([7]; source organism: Homo sapiens) is on record?
A: ≥ 136000 nM

Q: And the Kd ([15]; source organism: Homo sapiens)?
A: ≥ 20500 nM

Q: With LAGVSLLPV as the sequence, how does the Kd [14, 27] read?
A: 1910 nM

Q: How did the Kd [1, 25] turn out when KVYIGYCMA was run?
A: 2.6 nM

Q: For PLNDNIATLL, which Kd ([7]; source organism: Homo sapiens) is on record?
A: 7440 nM

Q: How did the Kd [16] turn out when YLRRRIGMI was run?
A: 6 nM

Q: For RAILGCAQA, which Kd [1, 25] is on record?
A: 2370 nM

Q: What does the source list for KDFFSSHPL?
A: IC50 [11, 28]: 55100 nM; IC50 [12, 28]: ≥ 249000 nM

Q: How did the IC50 [11, 29] turn out when GAFFLYDRL was run?
A: ≥ 122000 nM

Q: And the IC50 [12, 29]?
A: ≥ 158000 nM

Q: How did the Kd [1, 25] turn out when KGFYASPSV was run?
A: 2.68 nM

Q: How did the Kd [13, 30] turn out when EPEVANLDI was run?
A: 7230 nM

Q: And the Kd [14, 30]?
A: ≥ 44500 nM

Q: Which Kd [7, 26] does the source give for MTAGIFLFFM here?
A: 10.4 nM

Q: And the Kd [4, 26]?
A: 15.9 nM

Q: With EAIMAVGMV as the sequence, how does the Kd [7, 23] read?
A: 1.79 nM

Q: What about the Kd [4, 23] of the same sequence?
A: 43.9 nM

Q: For ATFTVNIFK, which Kd [1, 25] is on record?
A: 3.13 nM

Q: EPPFGESYI was tested. Which Kd [14, 30] did it give?
A: 13800 nM

Q: Which Kd [14, 26] does the source give for FSGKGPLRMV here?
A: ≥ 38000 nM

Q: AFHKDGAFF was tested. Which IC50 [11, 29] did it give?
A: 9670 nM

Q: For GEKSRCYSLY, which Kd [2, 22] is on record?
A: ≥ 69900 nM

Q: What about the Kd [3, 22] of the same sequence?
A: 751 nM

Q: And the Kd [17]?
A: ≥ 44600 nM

Q: And the Kd [18]?
A: ≥ 70300 nM

Q: What about the Kd [4, 22] of the same sequence?
A: ≥ 69700 nM

Q: And the Kd [5, 22]?
A: ≥ 10000 nM

Q: And the Kd [1, 22]?
A: 6850 nM

Q: And the Kd [6, 22]?
A: ≥ 42300 nM

Q: GTNGNHMQI was tested. Which IC50 [11, 29] did it give?
A: 3020 nM

Q: What about the IC50 [12, 29] of the same sequence?
A: 62900 nM

Q: Which Kd [7, 27] does the source give for VTPSMTMRCV here?
A: 193 nM

Q: How did the Kd [19, 31] turn out when SLNQTVHSL was run?
A: 1.9 nM

Q: And the Kd [7, 31]?
A: 16100 nM

Q: And the Kd [20, 31]?
A: 2.4 nM

Q: And the Kd [15, 31]?
A: ≥ 28100 nM

Q: With MSPGYVLGV as the sequence, how does the Kd ([7]; source organism: Dengue virus 4 Dominica/814669/1981) read?
A: 99.6 nM

Q: What does the source list for LIALSVLAV?
A: Kd [19, 32]: 117 nM; Kd [7, 32]: 323 nM; Kd [20, 32]: 2.63 nM; Kd [15, 32]: 336 nM
